{
  "source": "patent US8114974B2",
  "about": "“Engineered microorganisms with enhanced fermentation activity” (Verdezyne, Inc., priority 2009, dated 2012)",
  "key": {"xylose isomerase [1]": {"test_system": "xylose isomerase", "experiment": "Heterologous xylose isomerase expression in yeast (active yes/no)", "format": "cell-based, Saccharomyces cerevisiae", "details": "xylose isomerase of the donor organism expressed in engineered yeast (S. cerevisiae)"}, "xylose isomerase [2]": {"test_system": "xylose isomerase", "experiment": "In vitro xylose isomerase activity assay (sorbitol dehydrogenase/NADH coupled, A340; Km, specific activity, Ki for xylitol)", "format": "biochemical, Saccharomyces cerevisiae", "experimental": "About 20 μg of soluble whole cell extract was incubated in the presence of 100 mM Tris, pH 7.5, 10 mM MgCl2, 0.15 mM NADH (Sigma, St. Louis, Mo.), and about 2 U sorbitol dehydrogenase (Roche) at about 30° C. […] A Beckman DU-800 was utilized with an Enzyme Mechanism software package (Beckman Coulter, Inc.), and the change in the A340 was monitored for 2-3 minutes.\nApproximately 20 μg of soluble whole cell extract from each transformed cell line, prepared using Y-PER plus reagent as described above, was incubated in a solution containing about 100 mM Tris, pH 7.5, 10 mM MgCl ? 2, 0.15 mM NADH (Sigma, St. Louis, Mo.), and 2 U Sorbitol Dehydrogenase (SDH) (Roche, Indianapolis, Ind.) at about 30° C. […] A Beckman DU-800 spectrophotometer was utilized with an Enzyme Mechanism software package (Beckman Coulter, Inc, Brea, Calif.), and the change in the A340 was monitored for 2-3 minutes.\nApproximately 20 μg of soluble whole cell extract from each transformed cell line was prepared using Y-PER plus reagent as described above was incubated in a solution containing about 100 mM Tris, pH 7.5, 10 mM MgCl2, 0.15 mM NADH (Sigma, St. Louis, Mo.), and 2 U sorbitol dehydrogenase (SDH) (Roche, Indianapolis, Ind.) at about 30° C. […] A Beckman DU-800 spectrophotometer was utilized with an Enzyme Mechanism software package (Beckman Coulter, Inc, Brea, Calif.), and the change in the A340 was monitored for 2-3 minutes.\nApproximately 20 μg of soluble whole cell extract from each transformed cell line was prepared using Y-PER plus reagent as described above was incubated in a solution containing about 100 mM Tris, pH 7.5, 10 mM MgCl ? .2, 0.15 mM NADH (Sigma, St. Louis, Mo.), and 2 U Sorbitol Dehydrogenase (SDH) (Roche, Indianapolis, Ind.) at about 30° C. […] A Beckman DU-800 spectrophotometer was utilized with an Enzyme Mechanism software package (Beckman Coulter, Inc, Brea, Calif.), and the change in the A340 was monitored for 2-3 minutes.\nThe Clostridiales enzyme was further characterized at 1974 μg to confirm the presence of activity."}, "[3]": {"test_system": "2-keto-3-deoxygluconate-6-phosphate aldolase (EDA)", "experiment": "EDA activity assay with saturating amounts of E. coli EDD extract (LDH/NADH coupled)", "format": "biochemical, Saccharomyces cerevisiae", "details": "for EDA activity (comparison in words): saturating E. coli EDD extract", "protocol": "EDA genes isolated from a variety of sources were expressed in yeast and evaluated independently of EDA activity, to identify EDA activities suitable of inclusion in an engineered yeast strain. […] The activity of integrated EDAs in Thermosacc-Gold haploids, were also evaluated in this manner. The table below describes oligonucleotide primers used to isolate the various EDA genes.\nEDA extracts were prepared using the following protocol. Day 1\nGrow 5 ml LB-Kan preps of BF1055 (BL21/DE3 with pET26b empty vector) and BF1706 (BL21DE3 with pET26b+E. coli EDD).\nGrow 50 ml LB-Kan prep of BF1055, 2% (v/v) inoculate.\nGrow 50 ml prep of BF1706 using Novagen's Overnight Express (46.45 ml LB-Kan, 1 ml solution 1, 2.5 ml solution 2, 50 μl solution 3, 5 μl of 1M MnCl2, 50 μl of 0.5 M FeCl2), 2% (v/v) inoculate.\nInoculate to OD600 of 0.2.\nEDD extractions (adapted from Chemyan et al, Protein Science 16:2368-2377, 2007): • 1) Pellet cells in 50 ml conical tubes, 4° C., 3,000 rpm, 10 mins, discard supernatant. • 2) Resuspend in 2 ml degassed PDGH buffer (20 mM MES pH 6.5, 30 mM NaCl, 5 mM • MnCl2, 0.5 mM FeCl2, 10 mM 2-mercaptoethanol, 10 mM cysteine, sparged with nitrogen gas). Move to hungate tube. • 3) Add 0.1% Triton X-100, 10 ng/ml DNase, 10 μg/ml PMSF, 10 μg/ml TAME (Nα-(p-toluene sulfonyl)-L-arginine methyl ester), 100 μg/ml lysozyme. • 4) Sparge hungate tube with nitrogen gas, cap and seal. Incubate 2 hours at 37° C., swirl occasionally. • 5) Clarify by centrifugation in 2-ml tube, 4° C., 10 mins, 14,000 rpm. Keep supernatant. • 6) Treat with 150 mM pyruvate and 10 mM sodium cyanoborohydride (work in hood) to inactivate aldolase activity. Incubate 30 mins at room temperature. • 7) During incubation, pre-equilibrate PD-10 column from GE • a. Remove top cap, pour off storage buffer. • b. Cut off bottom tip, fit in 50 ml conical with adapter. • c. Pour 5 ml of 20 mM MES buffer, pH 6.5 (total of 5 times). Discard flow-through. • 8) Run sample through column, then add MES buffer to a total of 2.5 ml volume added. Discard flow-through. • 9) Run 3.5 ml 20 mM MES pH 6.5 buffer to elute protein. Discard column in appropriate waste receptacle. • 10) Perform Bradford assay (1:10 or 1:20 dilution). EDA extractions: • 1) Spin down in 50 ml conicals, 4° C., 3,400 rpm, 5 mins. Wash 2× with 25 ml water. • 2) Resuspend in 1 ml lysis buffer (50 mM Tris-HCl, pH 7, 10 mM MgCl2, 1× protease inhibitor. […]\nEach reaction contains 50 mM Tris-HCl, pH 7, 10 mM MgCl2, 0.15 mM NADH, 15 μg LDH, saturating amounts of EDD determined empirically (usually ˜100 μg), 1-50 μg EDA (depending on level of activity), and 1 mM 6-phosphogluconate. Reactions are started by the addition of 6-phosphogluconate and monitored for 5 mins at 30° C."}, "[4]": {"details": "chimeric variants, soluble whole cell extract, xylose 40-500 mM"}},
  "data": [
    {"molecule": "Actinoplanes missouriensis: xylose isomerase of this donor organism", "values": [
      {"measurement": "Active? (yes/no)", "setting": "xylose isomerase [1]", "result": "No"}
    ]},
    {"molecule": "Bacteroides thetaiotaomicron: xylose isomerase of this donor organism", "values": [
      {"measurement": "Active? (yes/no)", "setting": "xylose isomerase [1]", "result": "Yes"}
    ]},
    {"molecule": "Piromyces: xylose isomerase from Piromyces strain E2 (SEQ ID NO: 35)", "values": [
      {"measurement": "Active? (yes/no)", "setting": "xylose isomerase [1]", "result": "Yes"},
      {"measurement": "Specific Activity", "setting": "xylose isomerase [2]; G179A mutant kinetic assays, xylose 40-500 mM", "result": 2.02, "unit": "µmol/min/mg"},
      {"measurement": "Specific Activity", "setting": "xylose isomerase [2]; [4]", "result": 2.02, "unit": "µmol/min/mg"},
      {"measurement": "Specific Activity", "setting": "xylose isomerase [2]; soluble whole cell extract, xylose 40-500 mM, 30° C., pH 7.5", "result": 2.02, "unit": "µmol/min/mg"}
    ]},
    {"molecule": "Streptomyces rubiginosus: xylose isomerase of this donor organism", "values": [
      {"measurement": "Active? (yes/no)", "setting": "xylose isomerase [1]", "result": "No"}
    ]},
    {"molecule": "Thermus thermophilus: xylose isomerase of this donor organism", "values": [
      {"measurement": "Active? (yes/no)", "setting": "xylose isomerase [1]", "result": "Yes"}
    ]},
    {"molecule": "R. flavefaciens, FD-1 XI: xylose isomerase of Ruminococcus flavefaciens FD1 (ZP_06143883.1, SEQ ID NO: 110) (protein, listed as Ruminococcus flavefaciens) MEFFKNISKIPYEGKDSTNPLAFKYYNPDEVIDGKKMRDIMKFALSWWHTMGGDGTDMFGCGTADKTWGENDPAARAKAKVDAAFEIMQKLSIDYFCFHDRDLSPEYGSLKDTNAQLDIVTDYIKAKQAETGLKCLWGTAKCFDHPRFMHGAGTSPSADVFAFSAAQIKKALESTVKLGGTGYVFWGGREGYETLLNTNMGLELDNMARLMKMAVEYGRSIGFKGDFYIEPKPKEPTKHQYDFDTATVLGFLRKYGLDKDFKMNIEANHATLAQHTFQHELCVARTNGAFGSIDANQGDPLLGWDTDQFPTNIYDTTMCMYEVIKAGGFTNGGLNFDAKARRGSFTPEDIFYSYIAGMDAFALGYKAASKLIADGRIDSFISDRYASWSEGIGLDIISGKADMAALEKYALEKGEVTDSISSGRQELLESIVNNVIFNL", "values": [
      {"measurement": "xylose isomerase activity (slope) of candidate enzymes (FIG. 25)", "setting": "xylose isomerase [2]; 100 μg total soluble crude extract, saturating xylose (500 mM)", "result": "highest activity of the candidates tested"},
      {"measurement": "specific activity relative to the native XI control activity", "setting": "xylose isomerase [2]; Michaelis Mentin plots, xylose between 40 and 500 nM as printed", "result": "greater than 2 fold"}
    ]},
    {"molecule": "Codon-optimized EDA from P. aeruginosa: codon-optimized version of the P. aeruginosa EDA gene (protein, UniProt O68283 1-220, looked up, codon-optimized gene) 2-dehydro-3-deoxy-phosphogluco …: MHNLEQKTARIDTLCREARILPVITIDREADILPMADALAAGGLTALEITLRTAHGLTAIRRLSEERPHLRIGAGTVLDPRTFAAAEKAGASFVVTPGCTDELLRFALDSEVPLLPGVASASEIMLAYRHGYRRFKLFPAEVSGGPAALKAFSGPFPDIRFCPTGGVSLNNLADYLAVPNVMCVGGTWMLPKAVVDRGDWAQVERLSREALERFAEHRRH", "values": [
      {"measurement": "EDA activity (comparison in words)", "setting": "[3]; first experiment", "result": "slight improvement over the native sequence"}
    ]},
    {"molecule": "Escherichia coli: xylose isomerase of this donor organism (protein, UniProt P00944 1-440, looked up) Xylose isomerase: MQAYFDQLDRVRYEGSKSSNPLAFRHYNPDELVLGKRMEEHLRFAACYWHTFCWNGADMFGVGAFNRPWQQPGEALALAKRKADVAFEFFHKLHVPFYCFHDVDVSPEGASLKEYINNFAQMVDVLAGKQEESGVKLLWGTANCFTNPRYGAGAATNPDPEVFSWAATQVVTAMEATHKLGGENYVLWGGREGYETLLNTDLRQEREQLGRFMQMVVEHKHKIGFQGTLLIEPKPQEPTKHQYDYDAATVYGFLKQFGLEKEIKLNIEANHATLAGHSFHHEIATAIALGLFGSVDANRGDAQLGWDTDQFPNSVEENALVMYEILKAGGFTTGGLNFDAKVRRQSTDKYDLFYGHIGAMDTMALALKIAARMIEDGELDKRIAQRYSGWNSELGQQILKGQMSLADLAKYAQEHHLSPVHQSGRQEQLENLVNHYLFDK", "values": [
      {"measurement": "Active? (yes/no)", "setting": "xylose isomerase [1]", "result": "No"}
    ]},
    {"molecule": "E. coli EDA: 2-keto-3-deoxygluconate-6-phosphate aldolase of Escherichia coli expressed in yeast (protein, UniProt P0A955 1-213, looked up) KHG/KDPG aldolase: MKNWKTSAESILTTGPVVPVIVVKKLEHAVPMAKALVAGGVRVLEVTLRTECAVDAIRAIAKEVPEAIVGAGTVLNPQQLAEVTEAGAQFAISPGLTEPLLKAATEGTIPLIPGISTVSELMLGMDYGLKEFKFFPAEANGGVKALQAIAGPFSQVRFCPTGGISPANYRDYLALKSVLCIGGSWLVPADALEAGDYDRITKLAREAVEGAKL", "values": [
      {"measurement": "EDA activity, repeated experiment (FIG. 24)", "setting": "[3]; 100 μg of EDD and 25 μg of EDA cell lysates (5 μg of E. coli EDA), linear range", "result": "most active of those EDA's tested"},
      {"measurement": "EDA activity (comparison in words)", "setting": "[3]; first experiment", "result": "higher activity as compared to the other EDA activities evaluated herein"},
      {"measurement": "EDA activity relative to the EDA from P. aeruginosa", "setting": "[3]; first experiment, E. coli EDA slope outside linear range, underestimated", "result": "approximately 16 fold"}
    ]},
    {"molecule": "XI-Rp5: chimera: first 5 amino acids of Piromyces xylose isomerase fused to Ruminococcus xylose isomerase (SEQ ID NO. 56) (protein) MAKEYFSNIGKIQYQGPKSTDPLSFKYYNPEEVINGKTMREHLKFALSWWHTMGGDGTDMFGCGTTDKTWGQSDPAARAKAKVDAAFEIMDKLSIDYYCFHDRDLSPEYGSLKATNDQLDIVTDYIKEKQGDKFKCLWGTAKCFDHPRFMHGAGTSPSADVFAFSAAQIKKALESTVKLGGNGYVFWGGREGYETLLNTNMGLELDNMARLMKMAVEYGRSIGFKGDFYIEPKPKEPTKHQYDFDTATVLGFLRKYGLDKDFKMNIEANHATLAQHTFQHELRVARDNGVFGSIDANQGDVLLGWDTDQFPTNIYDTTMCMYEVIKAGGFTNGGLNFDAKARRGSFTPEDIFYSYIAGMDAFALGFRAALKLIEDGRIDKFVADRYASWNTGIGADIIAGKADFASLEKYALEKGEVTASLSSGRQEMLESIVNNVLFSL", "values": [
      {"measurement": "Km", "setting": "xylose isomerase [2]; [4]", "result": 66.5, "unit": "mM"},
      {"measurement": "Specific Activity", "setting": "xylose isomerase [2]; [4]", "result": 1.45, "unit": "µmol/min/mg"}
    ]},
    {"molecule": "Clostridium phytofermentans: xylose isomerase of this donor organism (protein, Clostridium phytofermentans, xylose isomerase of this donor organism) MKNYFPNVPEVKYEGPNSTNPFAFKYYDANKVVAGKTMKEHCRFALSWWHTLCAGGADPFGVTTMDRTYGNITDPMELAKAKVDAGFELMTKLGIEFFCFHDADIAPEGDTFEESKKNLFEIVDYIKEKMDQTGIKLLWGTANNFSHPRFMH", "values": [
      {"measurement": "Active? (yes/no)", "setting": "xylose isomerase [1]", "result": "Yes"}
    ]},
    {"molecule": "Bacillus subtilis: xylose isomerase of this donor organism (protein, UniProt P0CI80 1-445, looked up) Xylose isomerase: MAQSHSSSINYFGSANKVVYEGKDSTNPLAFKYYNPQEVIGGKTLKEHLRFSIAYWHTFTADGTDVFGAATMQRPWDHYKGMDLAKMRVEAAFEMFEKLDAPFFAFHDRDIAPEGSTLKETNQNLDMIMGMIKDYMRNSGVKLLWNTANMFTNPRFVHGAATSCNADVFAYAAAQVKKGLETAKELGAENYVFWGGREGYETLLNTDLKFELDNLARFMHMAVDYAKEIGYTGQFLIEPKPKEPTTHQYDTDAATTIAFLKQYGLDNHFKLNLEANHATLAGHTFEHELRMARVHGLLGSVDANQGHPLLGWDTDEFPTDLYSTTLAMYEILQNGGLGSGGLNFDAKVRRSSFEPDDLIYAHIAGMDAFARGLKVAHKLIEDRVFEDVIQHRYRSFTEGIGLEIIEGRANFHTLEQYALNHKSIKNESGRQEKLKAILNQYILEV", "values": [
      {"measurement": "Active? (yes/no)", "setting": "xylose isomerase [1]", "result": "No"}
    ]}
  ]
}
